Drawing on patent EP3574020B1, this text covers binding response units (BRU), mean for 1 substance.

This experiment has as its target commercially-prepared stable A-beta42 Oligomers (SynAging) (human). The experiment can be described thus: SPR; antibody covalently immobilized, stable A-beta42 oligomers at 1 microM. (In general: Surface plasmon resonance follows binding to a sensor surface in real time, without labels.)

Sequence of commercially-prepared stable A-beta42 Oligomers (SynAging) (human) (peptide, as listed by the source): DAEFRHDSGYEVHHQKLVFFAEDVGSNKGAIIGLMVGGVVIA

Substance negative control IgG1 (antibody) yielded a binding response units (BRU), mean of 2.5 BRU.
